What all share (test): ELISA
A general note: In an ELISA, binding on a coated surface is turned into a signal by an enzyme label.

Substrate in the assay “ELISA”: FN-B, recombinant human fibronectin extra domain B (EDB) as a single domain
To be noted: chain shown with the change; pre-coated human FN-B; detection with HRP-conjugated anti-S-tag antibody; parent: est. 100; read off a plot.

The target of assay [1] is FN-6789, human fibronectin type III domains 6–9 without EDB. To be noted: chain shown with the change, FN-6789 coated 1 µg/well, read off a plot.
Sequence of FN-6789, human fibronectin type III domains 6–9 without EDB (chain, as listed by the source): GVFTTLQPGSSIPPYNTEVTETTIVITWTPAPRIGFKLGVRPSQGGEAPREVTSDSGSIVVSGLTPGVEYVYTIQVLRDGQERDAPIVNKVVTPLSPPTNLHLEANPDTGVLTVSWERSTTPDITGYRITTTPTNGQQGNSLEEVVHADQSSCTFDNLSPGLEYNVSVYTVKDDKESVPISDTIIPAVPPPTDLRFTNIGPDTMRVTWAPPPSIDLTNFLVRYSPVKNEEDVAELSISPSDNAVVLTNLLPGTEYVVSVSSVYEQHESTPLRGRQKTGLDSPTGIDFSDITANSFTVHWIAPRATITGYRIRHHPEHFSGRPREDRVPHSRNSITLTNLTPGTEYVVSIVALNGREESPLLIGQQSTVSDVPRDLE
Assay [2] concerns the target FN-67B89, human fibronectin EDB flanked by its surrounding type III domains. To be noted: chain shown with the change, FN-67B89 coated 1 µg/well, read off a plot.

Sequence of FN-67B89, human fibronectin EDB flanked by its surrounding type III domains (chain, as listed by the source): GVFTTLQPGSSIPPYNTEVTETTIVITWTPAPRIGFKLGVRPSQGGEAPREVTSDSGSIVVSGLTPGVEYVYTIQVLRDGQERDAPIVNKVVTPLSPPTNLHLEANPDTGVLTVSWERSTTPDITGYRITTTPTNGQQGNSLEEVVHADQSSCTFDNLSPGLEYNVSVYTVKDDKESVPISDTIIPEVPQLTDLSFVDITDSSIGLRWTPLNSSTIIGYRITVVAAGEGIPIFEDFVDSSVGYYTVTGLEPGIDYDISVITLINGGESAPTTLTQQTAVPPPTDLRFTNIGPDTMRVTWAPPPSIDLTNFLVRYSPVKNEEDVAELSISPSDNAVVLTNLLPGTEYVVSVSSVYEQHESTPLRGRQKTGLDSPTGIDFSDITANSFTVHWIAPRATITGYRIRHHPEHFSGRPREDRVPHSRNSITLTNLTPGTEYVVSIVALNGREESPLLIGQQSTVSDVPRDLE
Sequence of FN-B, recombinant human fibronectin extra domain B (EDB) as a single domain (chain, as listed by the source): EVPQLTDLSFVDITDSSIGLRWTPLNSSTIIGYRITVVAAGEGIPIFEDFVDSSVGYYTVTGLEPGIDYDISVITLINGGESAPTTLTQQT

Turning to AMCTQRKNRIRLCRRDSDCTGACICRGNGYCG [Trx-MC-FN-010, Thioredoxin-A fusion of cystine-knot miniprotein MC-FN-010 P1A], the percent of parent in the assay “ELISA” was determined as 130%. On the same count and under the same terms, in the case of PMCTQRKNRIRLCARDSDCTGACICRGNGYCG [Trx-MC-FN-010, Thioredoxin-A fusion of cystine-knot miniprotein MC-FN-010 R14A] it was 71%.

With PMCTQAKNRIRLCRRDSDCTGACICRGNGYCG [Trx-MC-FN-010, Thioredoxin-A fusion of cystine-knot miniprotein MC-FN-010 R6A], the percent of parent in “ELISA” was 83%. On the same count and under the same terms, as for PMCTQRKNAIRLCRRDSDCTGACICRGNGYCG [Trx-MC-FN-010, Thioredoxin-A fusion of cystine-knot miniprotein MC-FN-010 R9A], the figure is 5%.

As for PMCTQRKNRIRLCRADSDCTGACICRGNGYCG [Trx-MC-FN-010, Thioredoxin-A fusion of cystine-knot miniprotein MC-FN-010 R15A], in “ELISA”, the percent of parent amounted to 61%. For the molecule PMCTQRANRIRLCRRDSDCTGACICRGNGYCG [Trx-MC-FN-010, Thioredoxin-A fusion of cystine-knot miniprotein MC-FN-010 K7A], the response (Absorbance (450 nm)) worked out at 0.09 in assay [1] (25 nM Trx-miniprotein, parent: est. 0.30); 0.13 in assay [1] (50 nM Trx-miniprotein, parent: est. 0.62); 0.62 in assay [2] (1.56 nM Trx-miniprotein, parent: est. 0.70); 1.1 in assay [2] (3.13 nM Trx-miniprotein, parent: est. 1.5); 1.7 in assay [2] (6.25 nM Trx-miniprotein, parent: est. 2.2); 2.4 in assay [2] (12.5 nM Trx-miniprotein, parent: est. 3.0). In addition, the response (Absorbance (450 nm)) in assay [2] (25 nM Trx-miniprotein, parent: est. 3.4) turned out to be 2.9; in assay [2] (50 nM Trx-miniprotein, parent: est. 3.7), 3.1. For the same molecule, the percent of parent in “ELISA” was determined as 320%. For PMCTQRKARIRLCRRDSDCTGACICRGNGYCG [Trx-MC-FN-010, Thioredoxin-A fusion of cystine-knot miniprotein MC-FN-010 N8A], in the assay “ELISA”, the percent of parent was found to be 88%.

As for PMCAQRKNRIRLCRRDSDCTGACICRGNGYCG [Trx-MC-FN-010, Thioredoxin-A fusion of cystine-knot miniprotein MC-FN-010 T4A], in “ELISA”, the percent of parent was found to be 100%.

Take PMCTARKNRIRLCRRDSDCTGACICRGNGYCG [Trx-MC-FN-010, Thioredoxin-A fusion of cystine-knot miniprotein MC-FN-010 Q5A]: the percent of parent in the assay “ELISA” was determined as 65%. Take PACTQRKNRIRLCRRDSDCTGACICRGNGYCG [Trx-MC-FN-010, Thioredoxin-A fusion of cystine-knot miniprotein MC-FN-010 M2A]: in “ELISA”, the percent of parent is 100%.
